The target of this assay is HA-TrioGEFD2 (pMTHA-TrioGEFD2) (UniProt O75962). The assay can be described thus: cell-based or functional assay.

This note sets out measurements from patent US20060210973A1.

Take GFP alone: the percentage of co-transfected PC12 cells with neurites after NGF was found to be 16%.
